Measurements taken from US20230073007A1 (OPTOLANE TECHNOLOGIES, published 2023).
No end group written: not given here.

T1: CRP (UniProt P02741 19-224)
T1 construct: also called antigen CRP
T1 sequence (looked up): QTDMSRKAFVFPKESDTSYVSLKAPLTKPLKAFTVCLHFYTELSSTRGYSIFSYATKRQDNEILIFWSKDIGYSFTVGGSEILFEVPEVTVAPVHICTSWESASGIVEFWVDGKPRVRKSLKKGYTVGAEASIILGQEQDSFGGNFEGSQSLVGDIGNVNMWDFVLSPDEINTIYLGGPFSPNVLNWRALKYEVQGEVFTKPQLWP

B1: switching binder of SEQ ID NO. 3 (L1) (peptide)
peptide: TYLEWYPQKPGQSPKLLIYK
modifications: also: fluorescence label in fluorescence assays, dye and place not given here
notes: also called PEPTIDE 3
B2: switching binder of SEQ ID NO. 2 (H2) (peptide)
peptide: VYYCAREPTGTGIYFDVWGK
modifications: also: fluorescence label in fluorescence assays, dye and place not given here
notes: also called PEPTIDE 2
B3: switching binder of SEQ ID NO. 4 (L2) (peptide)
peptide: VYYCFQGSHVPFTK
modifications: also: fluorescence label in fluorescence assays, dye and place not given here
notes: also called PEPTIDE 4

Key:
anti-CRP antibody = assay: fluorescence of labelled peptide (20 µM) on anti-CRP antibody fixed on a solid support, before (A) and after (B) antigen 10 µg/ml (CRP by paragraph 170; paragraph 172 writes HRP); C = fluorescence in the solution
Procedure: 1 to 4 were each treated at a concentration of 20 μM (100 μl/well) for 2 hours. At this time, after measuring the fluorescence of the bottom (A), the antigen HRP as an analyte for an IgG antibody of rabbit was treated at a concentration of 10 μg/ml for 1 hour. […] 1 to 4 were each treated at a concentration of 20 μM (100 μl/well) for 2 hours. At this time, after measuring the fluorescence of the bottom (A), the antigen HBsAg as an analyte for an IgG antibody of a goat was treated at a concentration of 10 μg/ml for 1 hour.

anti-HBsAg antibody = assay: fluorescence of labelled peptide (20 µM) on anti-HBsAg antibody fixed on a solid support, before (A) and after (B) HBsAg 10 µg/ml; C = fluorescence in the solution
[1] = target: T2, antibody 10 immobilized by the support 30 (FIG. 7A; antibody not identified); assay: fluorescence of labeled peptide vs peptide concentration on immobilized antibody (FIG. 7A)
T2 construct: also called the antibody 10

[2] = target: B3; assay: FRET between the labelled peptides H1 and L2, H1 peptide concentration varied (linear axis, 0-10 µM)
anti-HRP antibody [3] = target: T3, anti-HRP antibody; assay: fluorescence of labelled peptide (10 µM) on anti-HRP antibody fixed on a solid support, before (A) and after (B) HRP 10 µg/ml; C = fluorescence in the solution
T3 construct: also called anti-HRP antibody 10
Procedure: (§1) 1 to 4 were each treated at a concentration of 10 μM (100 μl/well) for 2 hours. At this time, after measuring the fluorescence of the bottom, the antigen HRP as an analyte for an IgG antibody of rabbit was treated at a concentration of 10 μg/ml for 1 hour. […] 1 to 4 were each treated at a concentration of 20 μM (100 μl/well) for 2 hours. At this time, after measuring the fluorescence of the bottom, the antigen HCG as an analyte for an IgG antibody of a mouse was treated at a concentration of 100 μg/ml for 2 hours.

anti-HRP antibody [4] = target: T3, anti-HRP antibody; assay: SPR, anti-HRP antibody immobilized on gold chip, peptide at 10 µM
Procedure: (§2) Carbodiimide/N-Hydroxysuccinimide (EDC/NHS, 0.4 M/0.1 M) was mixed in a 1:1 ratio and treated for 10 minutes to activate functional groups. […] Thereafter, it was used after blocking with an ethanolamine concentration of 1 M for 10 minutes. All of the switching binders 100 were treated by incubation for 30 minutes using two concentrations of 10 and 20 μM, respectively. The SPR signal can be measured as an average value by repeating the routine of measuring the SPR signal for 3 minutes while the solution is stopped after flowing 1% Tween-20 washing solution for 1 minute three times.

anti-hCG antibody = assay: fluorescence of labelled peptide (20 µM) on anti-hCG antibody fixed on a solid support, before (A) and after (B) hCG 100 µg/ml; C = fluorescence in the solution
Procedure: as §1

CRP = target: T1, CRP; assay: fluorescence of labelled peptide (20 µM) on protein coated at 100 µg/mL on a solid support
protein A = protein A (UniProt P38507 37-477); assay: as above
anti-HRP antibody [5] = target: T3, anti-HRP antibody; assay: SPR, anti-HRP antibody immobilized on gold chip, peptide at 20 µM
Procedure: as §2

[6] = target: B2; assay: FRET between the labelled peptides L1 and H2, L1 peptide concentration varied (linear axis, 0-10 µM)
[7] = target: T2, antibody 10 immobilized by the support …; assay: fluorescence of labelled peptide on an antibody fixed on a support, peptide concentration varied (log axis, 0.1-100 µM)
[8] = target: B1; assay: FRET between the two peptides (FIG. 5E)

Binder	percent printed over the arrow from bar A to bar B (residual bound peptide after antigen; agrees with B as percent of A) (anti-CRP antibody) [%]	percent printed over the arrow from bar A to bar B (residual bound peptide after antigen; agrees with B as percent of A) (anti-HBsAg antibody) [%]	Kd [1] [µM]	binding result [2]	percent printed over the arrow from bar A to bar B (residual bound peptide after antigen; agrees with B as percent of A) (anti-HRP antibody [3]) [%]	SPR signal (anti-HRP antibody [4]) [RU]	percent printed over the arrow from bar A to bar B (residual bound peptide after antigen; agrees with B as percent of A) (anti-hCG antibody) [%]	binding result (CRP)	binding result (protein A)	SPR signal (anti-HRP antibody [5]) [RU]	binding result [6]	EC50 (read off the curve) [7] [µM]	binding result [8]
SYWIHWVKQRPGQGLEWIGE (also: fluorescence label in fluorescence assays, dye and place not given here, also called PEPTIDE 1) [switching binder of SEQ ID NO. 1 (H1)]	73.2	73.2	1.42	binds	12.3	34.4	34.4	no binding (tested: 20 µM)	no binding (tested: 20 µM)	121			
B1	51.4	51.4	6.62		12.8	25.3		no binding (tested: 20 µM)	no binding (tested: 20 µM)	40.4	binds	~6	
B2	60.5	60.5	19.4		14.8	51.5	11.5	no binding (tested: 20 µM)		192			binds
B3	55.1	55.1	6.68		25.5	125	9.3	no binding (tested: 20 µM)	no binding (tested: 20 µM)	418			
